# Laboratory results reported in the supplement of paper PMC9112550, “Optimization of the antimicrobial peptide Bac7 by deep mutational scanning” (BMC Biology, 2022).
# Tested on: Escherichia coli TOP10
# Test: shrunken log2 fold change of peptide-encoding DNA abundance (4.5 h post-induction vs induction); higher = less antimicrobial activity (less host growth inhibition)
# Settings: time post-induction: 4.5 h; library: site-saturation at positions 5, 18, 19, 20
# 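Note: peptides expressed intracellularly from a pBAD plasmid library in pooled LB shake-flask culture, induced with 0.3% L-arabinose, DNA abundance read by NGS, three biological replicates, DESeq2 with apeglm shrinkage.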
row,Sequence,shrunken log2 fold change
1,RRIRCRPPRLPRPRPRPWFKPRP,-0.582
2,RRIRIRPPRLPRPRPRPEWIPRP,0.0384
3,RRIRCRPPRLPRPRPRPGYGPRP,-0.273
4,RRIRYRPPRLPRPRPRPNWCPRP,0.01
5,RRIRGRPPRLPRPRPRPDIIPRP,0.188
6,RRIRRRPPRLPRPRPRPLTHPRP,0.275
7,RRIRDRPPRLPRPRPRPEPEPRP,0.579
8,RRIRQRPPRLPRPRPRPNFPPRP,-0.00205
9,RRIRFRPPRLPRPRPRPLYYPRP,-0.885
10,RRIRERPPRLPRPRPRPKAHPRP,0.107
11,RRIRTRPPRLPRPRPRPCLMPRP,-0.15
12,RRIRTRPPRLPRPRPRPGATPRP,0.572
13,RRIRGRPPRLPRPRPRPQTNPRP,0.433
14,RRIRKRPPRLPRPRPRPNWHPRP,-0.0566
15,RRIRQRPPRLPRPRPRPTYYPRP,-0.524
16,RRIRIRPPRLPRPRPRPIADPRP,-0.0882
17,RRIRWRPPRLPRPRPRPRELPRP,0.642
18,RRIRFRPPRLPRPRPRPKYAPRP,-0.145
19,RRIRSRPPRLPRPRPRPKLVPRP,-0.0443
20,RRIRCRPPRLPRPRPRPLGDPRP,1.87
21,RRIRARPPRLPRPRPRPSGGPRP,0.115
22,RRIRRRPPRLPRPRPRPPPAPRP,1.28

row,Sequence,shrunken log2 fold change
1,RRIRWRPPRLPRPRPRPGAWPRP,0.373
2,RRIRYRPPRLPRPRPRPCKNPRP,-1.05
3,RRIRLRPPRLPRPRPRPSYIPRP,-0.427
4,RRIRARPPRLPRPRPRPPQAPRP,1.03
5,RRIRCRPPRLPRPRPRPEPNPRP,0.265
6,RRIRQRPPRLPRPRPRPRWPPRP,0.616
7,RRIRCRPPRLPRPRPRPLGEPRP,0.277
8,RRIRQRPPRLPRPRPRPPMMPRP,0.154
9,RRIRERPPRLPRPRPRPILGPRP,-0.197
10,RRIRHRPPRLPRPRPRPEGPPRP,-0.0401
11,RRIRYRPPRLPRPRPRPITTPRP,0.0271
12,RRIRFRPPRLPRPRPRPLHHPRP,-0.434
13,RRIRNRPPRLPRPRPRPFDSPRP,-0.303
14,RRIRMRPPRLPRPRPRPCWFPRP,-0.0997
15,RRIRIRPPRLPRPRPRPCDWPRP,0.00175
16,RRIRYRPPRLPRPRPRPRGIPRP,-0.0542
17,RRIRVRPPRLPRPRPRPDQDPRP,0.0425
18,RRIRERPPRLPRPRPRPPMDPRP,-0.214
19,RRIRIRPPRLPRPRPRPAYVPRP,-0.354
20,RRIRCRPPRLPRPRPRPCKHPRP,-0.339
21,RRIRRRPPRLPRPRPRPPEDPRP,1.34
22,RRIRRRPPRLPRPRPRPCISPRP,-0.0399

row,Sequence,shrunken log2 fold change
1,RRIRLRPPRLPRPRPRPEANPRP,0.075
2,RRIRPRPPRLPRPRPRPCGAPRP,0.206
3,RRIRLRPPRLPRPRPRPCPSPRP,-0.00306
4,RRIRIRPPRLPRPRPRPKNQPRP,-0.359
5,RRIRYRPPRLPRPRPRPGKFPRP,-0.0427
6,RRIRRRPPRLPRPRPRPEAPPRP,0.708
7,RRIRVRPPRLPRPRPRPVPSPRP,-0.0143
8,RRIRYRPPRLPRPRPRPEPAPRP,0.168
9,RRIRARPPRLPRPRPRPQYLPRP,-0.204
10,RRIRERPPRLPRPRPRPQGGPRP,-0.0586
11,RRIRQRPPRLPRPRPRPRPAPRP,0.185
12,RRIRTRPPRLPRPRPRPWWHPRP,-0.279
13,RRIRARPPRLPRPRPRPAKGPRP,0.342
14,RRIRLRPPRLPRPRPRPSWTPRP,-0.0555
15,RRIRCRPPRLPRPRPRPWRWPRP,0.568
16,RRIRNRPPRLPRPRPRPIVFPRP,-0.207
17,RRIRKRPPRLPRPRPRPGYCPRP,-0.275
18,RRIRMRPPRLPRPRPRPHLWPRP,0.374
19,RRIRKRPPRLPRPRPRPPDVPRP,-0.0127
20,RRIRNRPPRLPRPRPRPGTHPRP,-0.16
21,RRIRWRPPRLPRPRPRPWVKPRP,-0.00207
22,RRIRVRPPRLPRPRPRPWWRPRP,1.25

row,Sequence,shrunken log2 fold change
1,RRIRMRPPRLPRPRPRPRLNPRP,0.305
2,RRIRFRPPRLPRPRPRPQSDPRP,0.0151
3,RRIRMRPPRLPRPRPRPEWHPRP,0.161
4,RRIRTRPPRLPRPRPRPACVPRP,0.235
5,RRIRKRPPRLPRPRPRPTDSPRP,-0.0461
6,RRIRSRPPRLPRPRPRPMCGPRP,-0.145
7,RRIRHRPPRLPRPRPRPEWNPRP,-0.294
8,RRIRWRPPRLPRPRPRPMPYPRP,-0.0164
9,RRIRVRPPRLPRPRPRPRIIPRP,-0.0581
10,RRIRIRPPRLPRPRPRPPWNPRP,-0.403
11,RRIRDRPPRLPRPRPRPMSNPRP,-0.0263
12,RRIRMRPPRLPRPRPRPPDVPRP,0.00748
13,RRIRFRPPRLPRPRPRPPPGPRP,1.34
14,RRIRVRPPRLPRPRPRPWEGPRP,0.0112
15,RRIRYRPPRLPRPRPRPLWKPRP,-0.0695
16,RRIRWRPPRLPRPRPRPCPKPRP,-0.0941
17,RRIRDRPPRLPRPRPRPKLHPRP,0.464
18,RRIRNRPPRLPRPRPRPLMCPRP,0.141
19,RRIRMRPPRLPRPRPRPNEIPRP,0.0871
20,RRIRLRPPRLPRPRPRPLAEPRP,0.289
21,RRIRARPPRLPRPRPRPNLEPRP,0.0621
22,RRIRKRPPRLPRPRPRPACMPRP,0.605

row,Sequence,shrunken log2 fold change
1,RRIRMRPPRLPRPRPRPNGPPRP,0.114
2,RRIRRRPPRLPRPRPRPMCQPRP,0.254
3,RRIRVRPPRLPRPRPRPCSTPRP,-0.127
4,RRIRYRPPRLPRPRPRPRSDPRP,-0.113
5,RRIRHRPPRLPRPRPRPASSPRP,0.0164
6,RRIRYRPPRLPRPRPRPGECPRP,-0.489
7,RRIRCRPPRLPRPRPRPVPSPRP,-0.119
8,RRIRQRPPRLPRPRPRPIYRPRP,-0.0223
9,RRIRYRPPRLPRPRPRPQSLPRP,-0.0376
10,RRIRWRPPRLPRPRPRPRVQPRP,0.927
11,RRIRIRPPRLPRPRPRPVKAPRP,-0.0571
12,RRIRMRPPRLPRPRPRPVAIPRP,0.104
13,RRIRNRPPRLPRPRPRPSKVPRP,0.0123
14,RRIRDRPPRLPRPRPRPQRCPRP,0.121
15,RRIRRRPPRLPRPRPRPTKKPRP,0.253
16,RRIRPRPPRLPRPRPRPVWAPRP,0.278
17,RRIRTRPPRLPRPRPRPCTAPRP,-0.0896
18,RRIRSRPPRLPRPRPRPQLWPRP,0.0725
19,RRIRTRPPRLPRPRPRPLNHPRP,-0.204
20,RRIRNRPPRLPRPRPRPKMMPRP,-0.249
21,RRIRARPPRLPRPRPRPFGWPRP,0.24
